Key:
Type in all cases: biochemical
[1] = ω-transaminase activity, forward direction (pimelate semialdehyde to 7-aminoheptanoate), pyruvate formation by RP-HPLC; conditions: for acceptance of pimelate semialdehyde as substrate (conversion of L-alanine to pyruvate) against the empty vector control: cell free extract, 10 mM pimelate semialdehyde, 10 mM L-alanine, pH 7.5, 25° C., 4 h, FIG. 14; for reversibility of ω-transaminase activity: pimelate semialdehyde accepted, 7-aminoheptanoate synthesized: conclusion from reverse and forward assays of Example 1
Method: (§1) A nucleotide sequence encoding an N-terminal His-tag was added to the nucleic acid sequences from Chromobacterium violaceum, Pseudomonas syringae, Rhodobacter sphaeroides, and Vibrio fluvialis encoding the ω-transaminases of SEQ ID NOs: 7, 9, 10 and 12, respectively (see FIG. 6) such that N-terminal HIS tagged ω-transaminases could be produced. Each of the resulting modified genes was cloned into a pET21a expression vector under control of the T7 promoter and each expression vector was transformed into a BL21[DE3] E. coli host. The resulting recombinant E. coli strains were cultivated at 37° C. in a 250 mL shake flask culture containing 50 mL LB media and antibiotic selection pressure, with shaking at 230 rpm. Each culture was induced overnight at 16° C. using 1 mM IPTG.
(§2) The pellet from each induced shake flask culture was harvested via centrifugation. Each pellet was resuspended and lysed via sonication. The cell debris was separated from the supernatant via centrifugation and the cell free extract was used immediately in enzyme activity assays.
Enzyme activity in the forward direction (i.e., pimelate semialdehyde to 7-aminoheptanoate) was confirmed for the transaminases of SEQ ID NO 9, SEQ ID NO 10 and SEQ ID NO 12. Enzyme activity assays were performed in a buffer composed of a final concentration of 50 mM HEPES buffer (pH=7.5), 10 mM pimelate semialdehyde, 10 mM L-alanine and 100 μM pyridoxyl 5′ phosphate. Each enzyme activity assay reaction was initiated by adding a cell free extract of the ω-transaminase gene product or the empty vector control to the assay buffer containing the pimelate semialdehyde and incubated at 25° C. for 4 h, with shaking at 250 rpm. The formation of pyruvate was quantified via RP-HPLC.

[2] = ω-transaminase activity, 7-aminoheptanol to 7-oxoheptanol, L-alanine formation by RP-HPLC; conditions: for acceptance of 7-aminoheptanol as substrate (conversion of pyruvate to L-alanine) against the empty vector control: cell free extract, 10 mM 7-aminoheptanol, 10 mM pyruvate, pH 7.5, 25° C., 4 h, FIG. 17; for acceptance of 7-oxoheptanol as substrate forming 7-aminoheptanol, concluded from reversibility: inferred from reverse direction assay and Example 1
Method: A nucleotide sequence encoding an N-terminal His-tag was added to the Chromobacterium violaceum, Pseudomonas syringae and Rhodobacter sphaeroides nucleic acids encoding the ω-transaminases of SEQ ID NOs: 7, 9 and 10, respectively (see FIG. 6) such that N-terminal HIS tagged ω-transaminases could be produced. The modified genes were cloned into a pET21a expression vector under the T7 promoter. Each expression vector was transformed into a BL21[DE3] E. coli host. Each resulting recombinant E. coli strain were cultivated at 37° C. in a 250 mL shake flask culture containing 50 mL LB media and antibiotic selection pressure, with shaking at 230 rpm. Each culture was induced overnight at 16° C. using 1 mM IPTG.
as §2
(§3) Enzyme activity assays in the reverse direction (i.e., 7-aminoheptanol to 7-oxoheptanol) were performed in a buffer composed of a final concentration of 50 mM HEPES buffer (pH=7.5), 10 mM 7-aminoheptanol, 10 mM pyruvate, and 100 μM pyridoxyl 5′ phosphate. Each enzyme activity assay reaction was initiated by adding cell free extract of the ω-transaminase gene product or the empty vector control to the assay buffer containing the 7-aminoheptanol and then incubated at 25° C. for 4 h, with shaking at 250 rpm. The formation of L-alanine was quantified via RP-HPLC.

[3] = ω-transaminase activity, reverse direction (7-aminoheptanoate to pimelate semialdehyde), L-alanine formation by RP-HPLC; conditions: cell free extract, 10 mM 7-aminoheptanoate, 10 mM pyruvate, pH 7.5, 25° C., 4 h; FIG. 13
Method: as §1, §2
as §3, with “7-aminoheptanoate” for “7-aminoheptanol”, “pimelate semialdehyde)” for “7-oxoheptanol)”, “7-aminoheptanoate,” for “7-aminoheptanol,”, “pyruvate” for “pyruvate,”, “and” for “and then”, “L-alanine from pyruvate” for “L-alanine”

[4] = carboxylate reductase activity, N7-acetyl-7-aminoheptanoate to N7-acetyl-7-aminoheptanal, NADPH consumption at 340 nm; conditions: purified enzyme enhanced by sfp gene product, 2 mM N7-acetyl-7-aminoheptanoate, pH 7.5, room temperature, 20 min; FIG. 10
Method: The activity of each of the N-terminal His-tagged carboxylate reductases of SEQ ID NOs: 3, 5, and 6 (see Examples 2 and 3, and FIG. 6) for converting N7-acetyl-7-aminoheptanoate to N7-acetyl-7-aminoheptanal was assayed in triplicate in a buffer composed of a final concentration of 50 mM HEPES buffer (pH=7.5), 2 mM N7-acetyl-7-aminoheptanoate, 10 mM MgCl2, 1 mM ATP, and 1 mM NADPH. The assays were initiated by adding purified carboxylate reductase and phosphopantetheine transferase or the empty vector control to the assay buffer containing the N7-acetyl-7-aminoheptanoate then incubated at room temperature for 20 min. The consumption of NADPH was monitored by absorbance at 340 nm.

Molecule: SEQ ID NO 10: Rhodobacter sphaeroides ω-transaminase, Genbank Accession No. ABA81135.1
- acceptance of pimelate semialdehyde as substrate (conversion of L-alanine to pyruvate) against the empty vector control [1]: accepted pimelate semialdehyde as substrate
- reversibility of ω-transaminase activity: pimelate semialdehyde accepted, 7-aminoheptanoate synthesized [1]: accepted pimelate semialdehyde as substrate and synthesized 7-aminoheptanoate as a reaction product
- acceptance of 7-aminoheptanol as substrate (conversion of pyruvate to L-alanine) against the empty vector control [2]: accepted 7-aminoheptanol as substrate
- acceptance of 7-oxoheptanol as substrate forming 7-aminoheptanol, concluded from reversibility [2]: accept 7-oxoheptanol as substrate and form 7-aminoheptanol
- acceptance of 7-aminoheptanoate as substrate (conversion of pyruvate to L-alanine) against the empty vector control [3]: accepted 7-aminoheptanote as substrate

B1: SEQ ID NO 9: Pseudomonas syringae ω-transaminase, Genbank Accession No. AAY39893.1 (protein)
chain: MSANNPQTLEWQALSSEHHLAPFSDYKQLKEKGPRIITRAEGVYLWDSEGNKILDGMSGLWCVAIGYGREELADAASKQMRELPYYNLFFQTAHPPVLELAKAISDIAPEGMNHVFFTGSGSEGNDTMLRMVRHYWALKGQPNKKTIISRVNGYHGSTVAGASLGGMTYMHEQGDLPIPGVVHIPQPYWFGEGGDMTPDEFGIWAAEQLEKKILELGVENVGAFIAEPIQGAGGVIVPPDSYWPKIKEILSRYDILFAADEVICGFGRTSEWFGSDFYGLRPDMMTIAKGLTSGYVPMGGLIVRDEIVAVLNEGGDFNHGFTYSGHPVAAAVALENIRILREEKIVERVRSETAPYLQKRLRELSDHPLVGEVRGVGLLGAIELVKDKTTRERYTDKGAGMICRTFCFDNGLIMRAVGDTMIIAPPLVISFAQIDELVEKARTCLDLTLAVLQG
- acceptance of pimelate semialdehyde as substrate (conversion of L-alanine to pyruvate) against the empty vector control [1]: accepted pimelate semialdehyde as substrate
- reversibility of ω-transaminase activity: pimelate semialdehyde accepted, 7-aminoheptanoate synthesized [1]: accepted pimelate semialdehyde as substrate and synthesized 7-aminoheptanoate as a reaction product
- acceptance of 7-aminoheptanol as substrate (conversion of pyruvate to L-alanine) against the empty vector control [2]: accepted 7-aminoheptanol as substrate
- acceptance of 7-oxoheptanol as substrate forming 7-aminoheptanol, concluded from reversibility [2]: accept 7-oxoheptanol as substrate and form 7-aminoheptanol
- acceptance of 7-aminoheptanoate as substrate (conversion of pyruvate to L-alanine) against the empty vector control [3]: accepted 7-aminoheptanote as substrate

B2: SEQ ID NO 12: Vibrio fluvialis ω-transaminase, Genbank Accession No. AEA39183.1 (protein)
chain: MNKPQSWEARAETYSLYGFTDMPSLHQRGTVVVTHGEGPYIVDVNGRRYLDANSGLWNMVAGFDHKGLIDAAKAQYERFPGYHAFFGRMSDQTVMLSEKLVEVSPFDSGRVFYTNSGSEANDTMVKMLWFLHAAEGKPQKRKILTRWNAYHGVTAVSASMTGKPYNSVFGLPLPGFVHLTCPHYWRYGEEGETEEQFVARLARELEETIQREGADTIAGFFAEPVMGAGGVIPPAKGYFQAILPILRKYDIPVISDEVICGFGRTGNTWGCVTYDFTPDAIISSKNLTAGFFPMGAVILGPELSKRLETAIEAIEEFPHGFTASGHPVGCAIALKAIDVVMNEGLAENVRRLAPRFEERLKHIAERPNIGEYRGIGFMWALEAVKDKASKTPFDGNLSVSERIANTCTDLGLICRPLGQSVVLCPPFILTEAQMDEMFDKLEKALDKVFAEVA
- acceptance of pimelate semialdehyde as substrate (conversion of L-alanine to pyruvate) against the empty vector control [1]: accepted pimelate semialdehyde as substrate
- reversibility of ω-transaminase activity: pimelate semialdehyde accepted, 7-aminoheptanoate synthesized [1]: accepted pimelate semialdehyde as substrate and synthesized 7-aminoheptanoate as a reaction product
- acceptance of 7-aminoheptanoate as substrate (conversion of pyruvate to L-alanine) against the empty vector control [3]: accepted 7-aminoheptanote as substrate

B3: SEQ ID NO 3: Mycobacterium smegmatis carboxylate reductase, Genbank Accession No. ABK71854.1 (protein)
chain: MTSDVHDATDGVTETALDDEQSTRRIAELYATDPEFAAAAPLPAVVDAAHKPGLRLAEILQTLFTGYGDRPALGYRARELATDEGGRTVTRLLPRFDTLTYAQVWSRVQAVAAALRHNFAQPIYPGDAVATIGFASPDYLTLDLVCAYLGLVSVPLQHNAPVSRLAPILAEVEPRILTVSAEYLDLAVESVRDVNSVSQLVVFDHHPEVDDHRDALARAREQLAGKGIAVTTLDAIADEGAGLPAEPIYTADHDQRLAMILYTSGSTGAPKGAMYTEAMVARLWTMSFITGDPTPVINVNFMPLNHLGGRIPISTAVQNGGTSYFVPESDMSTLFEDLALVRPTELGLVPRVADMLYQHHLATVDRLVTQGADELTAEKQAGAELREQVLGGRVITGFVSTAPLAAEMRAFLDITLGAHIVDGYGLTETGAVTRDGVIVRPPVIDYKLIDVPELGYFSTDKPYPRGELLVRSQTLTPGYYKRPEVTASVFDRDGYYHTGDVMAETAPDHLVYVDRRNNVLKLAQGEFVAVANLEAVFSGAALVRQIFVYGNSERSFLLAVVVPTPEALEQYDPAALKAALADSLQRTARDAELQSYEVPADFIVETEPFSAANGLLSGVGKLLRPNLKDRYGQRLEQMYADIAATQANQLRELRRAAATQPVIDTLTQAAATILGTGSEVASDAHFTDLGGDSLSALTLSNLLSDFFGFEVPVGTIVNPATNLAQLAQHIEAQRTAGDRRPSFTTVHGADATEIRASELTLDKFIDAETLRAAPGLPKVTTEPRTVLLSGANGWLGRFLTLQWLERLAPVGGTLITIVRGRDDAAARARLTQAYDTDPELSRRFAELADRHLRVVAGDIGDPNLGLTPEIWHRLAAEVDLVVHPAALVNHVLPYRQLFGPNVVGTAEVIKLALTERIKPVTYLSTVSVAMGIPDFEEDGDIRTVSPVRPLDGGYANGYGNSKWAGEVLLREAHDLCGLPVATFRSDMILAHPRYRGQVNVPDMFTRLLLSLLITGVAPRSFYIGDGERPRAHYPGLTVDFVAEAVTTLGAQQREGYVSYDVMNPHDDGISLDVFVDWLIRAGHPIDRVDDYDDWVRRFETALTALPEKRRAQTVLPLLHAFRAPQAPLRGAPEPTEVFHAAVRTAKVGPGDIPHLDEALIDKYIRDLREFGLI
- acceptance of N7-acetyl-7-aminoheptanoate as substrate (NADPH consumption) against the empty vector control [4]: accepted N7-acetyl-7-aminoheptanoate as substrate
